The text below walks through data of the RNAGym collection of RNA variant scans (doi:10.1073/pnas.2313332121).

The chains are these.
B1: TPR t1 (parent)
chain: GACCAAUCUGCCCUCAGAGCUCGAGAACAUCUUCGGAUGCAGAGGAGGCAGGCUUCGGUGGCGCGAUAGCGCCAACGUCCUCAACCUCCAAUGCAUCCCACCACAUGAUGAUGCCUGAAGAGCCUUGGUUUUUUG

The variants in this series derive from B1. Briefly: polymerase ribozyme fitness, log enrichment relative to wild type (log ratio); higher = more active; in vitro selection for triplet polymerase activity. The method, boiled down:
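Input and output libraries were sequenced on Illumina after a single in vitro selection round, run in triplicate on PCR-built, transcribed mutant libraries of each subunit of a heterodimeric triplet polymerase ribozyme. Selection annealed libraries to a biotinylated primer, the partner subunit and triplets, incubated them frozen at −7 °C, then gel-excised extended constructs for streptavidin-bead capture and RT-PCR. Genotypes with ≥10 input reads and ≥1 read per output were kept. Fitness is the logarithm, taken in base 2, of genotype enrichment divided by wild-type enrichment, using inverse-variance-weighted replicate averages.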
Turning to G63A U78C G113A, the “polymerase ribozyme fitness (log ratio)” value was -1.96.
For C64U A74C, the “polymerase ribozyme fitness (log ratio)” value is -0.717.
On to G63A U126G U130G, for which the “polymerase ribozyme fitness (log ratio)” value was -4.43.
In the case of G63C A66U G77C A91C C94A, the “polymerase ribozyme fitness (log ratio)” value was -6.25.
The same measure for G63U G69C: -4.76.
Regarding G63A U87G A111C, the “polymerase ribozyme fitness (log ratio)” value was -1.52.
In the case of G63A U81C A90U, the “polymerase ribozyme fitness (log ratio)” value was -4.66.
As for C64A A66C U109C, the “polymerase ribozyme fitness (log ratio)” value was -6.74.
Regarding G63C C101U, the “polymerase ribozyme fitness (log ratio)” value was -1.5.
Under G63U A84U C86A G128U U130C stands -3.81; under G63C G113U, -3.35; under G63A G122A, -1.62.
As to G63A U116C, the “polymerase ribozyme fitness (log ratio)” value was -0.908.
For C64U C86U G110U G122A, the “polymerase ribozyme fitness (log ratio)” value is -4.18.
In the case of G63A C115G, the “polymerase ribozyme fitness (log ratio)” value was -3.51.
C64U C99U: the “polymerase ribozyme fitness (log ratio)” value is -2.88.
As to C64U C114U U125A, the “polymerase ribozyme fitness (log ratio)” value is -2.95.
As to C64U A118U, the “polymerase ribozyme fitness (log ratio)” value was determined as 0.459.
With G63A G93A, the “polymerase ribozyme fitness (log ratio)” value was -1.38.
Under G63C U126G stands -1.74; under G63C U78A G110U, -3.31.
The same measure for C64U C73A U131A: -0.288; for C64A U78C: -6.04; for C64A U78G: -6.68.
In the case of G63C U116A C123U, the “polymerase ribozyme fitness (log ratio)” value was -1.91.
The same measure for G63U C89A G113A G120C U129G: -5.25; for C64G U112A U126C: -5.9.
Regarding G63U A84C U130A, the “polymerase ribozyme fitness (log ratio)” value was -2.23.
As for G63C G117C A119U, the “polymerase ribozyme fitness (log ratio)” value is -4.1.
G63A U133A: the “polymerase ribozyme fitness (log ratio)” value is -0.918.
As to C64U C114U, the “polymerase ribozyme fitness (log ratio)” value was -1.47.
As for C64U C114A, the “polymerase ribozyme fitness (log ratio)” value is -1.4.
As for G63A U78C A83G C88G, the “polymerase ribozyme fitness (log ratio)” value was -3.
C64U C72U U106G G127C: the “polymerase ribozyme fitness (log ratio)” value was -2.97.
For the variant C64U C94A, the “polymerase ribozyme fitness (log ratio)” value is -0.615.
For the variant G63U C82A C104U A108C, the “polymerase ribozyme fitness (log ratio)” value was -6.05.
The same measure for C64A U78C C123U: -4.49; for C64U C88U G122A: -0.852.
Take C64G U78C C115A: the “polymerase ribozyme fitness (log ratio)” value is -5.99.
Consider G63U U78G, for which the “polymerase ribozyme fitness (log ratio)” value was -3.12.
As for G63U A90U, the “polymerase ribozyme fitness (log ratio)” value was -3.53.
On to G63C C94A, for which the “polymerase ribozyme fitness (log ratio)” value was -1.52.
For G63A C114U, the “polymerase ribozyme fitness (log ratio)” value is -2.82.
G63A C70G C73A: the “polymerase ribozyme fitness (log ratio)” value is -5.82.
Turning to G63U G128A, the “polymerase ribozyme fitness (log ratio)” value was -3.29.
Under G63C G93U stands -1.7; under G63A A84U C86A U125G, -2.61; under G63U C88A, -1.89.
For the variant C64U C76A G120U, the “polymerase ribozyme fitness (log ratio)” value was -5.9.
The same measure for G63C G77C: -2.42; for C64G U112A: -4.73.
Under C62U U87C stands -0.408; under C62U U78A C89U G117A, -2.6; under C62U G63U A103C C114A, -4.66.
For the variant G63C C102A, the “polymerase ribozyme fitness (log ratio)” value was -2.59.
Turning to G63C C88A, the “polymerase ribozyme fitness (log ratio)” value was -1.08.
As for G63C C88U, the “polymerase ribozyme fitness (log ratio)” value was -1.29.
Turning to C62U U78G C86U, the “polymerase ribozyme fitness (log ratio)” value was -0.761.
The same measure for C62U C123U: 1.47; for C62U G120A: 1.09; for G63C G65A G117C A119G A121C: -7.02.
Consider G63A G107A, for which the “polymerase ribozyme fitness (log ratio)” value was -6.55.
The same measure for G63C U92A U132A: -3.33; for G63U C94G: -1.4; for G63C U92A: -4.04.
For G63A G93A G120U, the “polymerase ribozyme fitness (log ratio)” value is -1.07.
As to G63A C89G, the “polymerase ribozyme fitness (log ratio)” value was -2.7.
As for G63A C89U, the “polymerase ribozyme fitness (log ratio)” value is -1.62.
With C64A C79U C102A A119G, the “polymerase ribozyme fitness (log ratio)” value is -7.09.
Turning to G63C G117C C123G, the “polymerase ribozyme fitness (log ratio)” value is -2.31.
The same measure for G63U C89U: -1.85; for G63C C85U A111C G122C: -3.75.
In the case of G63U U78C A108G, the “polymerase ribozyme fitness (log ratio)” value is -6.17.
The same measure for G63A C102U C114A: -6.03.
The same measure for G63U C70A G127C: -0.596; for G63U G93U: -1.76; for C64G A84U U112A: -6.14.
Turning to C64U A95G, the “polymerase ribozyme fitness (log ratio)” value was -1.52.
Turning to C64U A103G, the “polymerase ribozyme fitness (log ratio)” value was -4.77.
The same measure for C64U C72U A90C C104A A111G G127A G135A: -4.26; for G63A G120A: -0.19; for C64U C82U U109A G120U: -6.78.
On to G63A U131G, for which the “polymerase ribozyme fitness (log ratio)” value was -1.53.
C64U A111U: the “polymerase ribozyme fitness (log ratio)” value is -3.24.
C64U A111C: the “polymerase ribozyme fitness (log ratio)” value came to 0.336.
On to G63C U130C, for which the “polymerase ribozyme fitness (log ratio)” value is -1.1.
On to C62U G135U, for which the “polymerase ribozyme fitness (log ratio)” value was -0.561.
As to G63C C72U G107A C124U, the “polymerase ribozyme fitness (log ratio)” value was -6.17.
Under G63U G120U G135U stands -2.56.
In the case of C62U U78C U106C, the “polymerase ribozyme fitness (log ratio)” value was -0.597.
Turning to C62U G107C, the “polymerase ribozyme fitness (log ratio)” value is -5.77.
Consider C62U G69A, for which the “polymerase ribozyme fitness (log ratio)” value is -3.76.
With G63C C85A, the “polymerase ribozyme fitness (log ratio)” value was -3.22.
On to G63C G128C, for which the “polymerase ribozyme fitness (log ratio)” value is -3.04.
Consider G63U C124U, for which the “polymerase ribozyme fitness (log ratio)” value is 0.0528.
Regarding C64A C73G, the “polymerase ribozyme fitness (log ratio)” value was -6.34.
Take G63U G77C C86G: the “polymerase ribozyme fitness (log ratio)” value is -4.32.
G63A G110C C115G G120U: the “polymerase ribozyme fitness (log ratio)” value was -7.28.
In the case of G63C U116C, the “polymerase ribozyme fitness (log ratio)” value is -1.29.
For G63C C89U, the “polymerase ribozyme fitness (log ratio)” value was -1.31.
Consider G63A C72G, for which the “polymerase ribozyme fitness (log ratio)” value is -3.11.
For G63A G69U C79U, the “polymerase ribozyme fitness (log ratio)” value was -0.72.
On to C64A U133A, for which the “polymerase ribozyme fitness (log ratio)” value is -6.16.
For the variant G63C C79U G117U, the “polymerase ribozyme fitness (log ratio)” value was -2.56.
Take C64A C88G: the “polymerase ribozyme fitness (log ratio)” value is -6.08.
For the variant G63C G117U G120A, the “polymerase ribozyme fitness (log ratio)” value was -2.53.
With G63A G71A, the “polymerase ribozyme fitness (log ratio)” value was -2.59.
Under G63A G128U stands -3.07; under G63C C79G, -0.109.
Consider G63C C70U A90G, for which the “polymerase ribozyme fitness (log ratio)” value was found to be 0.0962.
On to G63U C114A, for which the “polymerase ribozyme fitness (log ratio)” value was -3.04.
On to G63U C114U, for which the “polymerase ribozyme fitness (log ratio)” value was -3.25.
Under C64U C115A U125A stands -0.872; under C64G C102U C124U, -6.08; under G63A U112C, 0.988.
In the case of C64U C82U A95G, the “polymerase ribozyme fitness (log ratio)” value was -0.455.
Under C62U G93A stands -0.42; under G63A U96G C124U, 0.174.
As to C62U G110U, the “polymerase ribozyme fitness (log ratio)” value was -1.14.
For G63A C80A, the “polymerase ribozyme fitness (log ratio)” value was -4.42.
For the variant G63U G77U U78C, the “polymerase ribozyme fitness (log ratio)” value was -2.41.
Consider G63U G120A, for which the “polymerase ribozyme fitness (log ratio)” value was -0.542.
Regarding C64A A121C, the “polymerase ribozyme fitness (log ratio)” value was -4.57.
Turning to G63A C73U U130G, the “polymerase ribozyme fitness (log ratio)” value was -0.938.
The same measure for G63C C115U: -1.32; for G63U G110U: -3.12; for G63U G110A: -1.81.
Consider G63A G93U C98U A121G, for which the “polymerase ribozyme fitness (log ratio)” value was -0.418.
On to C62U U133G, for which the “polymerase ribozyme fitness (log ratio)” value is -1.15.
Take G63C A90C: the “polymerase ribozyme fitness (log ratio)” value was -2.06.
With G63C A90U, the “polymerase ribozyme fitness (log ratio)” value was -2.23.
Under G63A U131G G135U stands -0.787.
In the case of G63A A74U C102U A111U U129G, the “polymerase ribozyme fitness (log ratio)” value was -5.79.
C64G C89U C123U: the “polymerase ribozyme fitness (log ratio)” value is -5.79.
As to C64G C98U, the “polymerase ribozyme fitness (log ratio)” value is -6.14.
Consider G63A G77C A119U, for which the “polymerase ribozyme fitness (log ratio)” value is -2.08.
For G63A U106A, the “polymerase ribozyme fitness (log ratio)” value was -1.29.
Regarding G63A U106G, the “polymerase ribozyme fitness (log ratio)” value was -2.57.
Turning to G63U U92A, the “polymerase ribozyme fitness (log ratio)” value is -5.39.
For C62U C104G, the “polymerase ribozyme fitness (log ratio)” value is -7.
As to C62U U129G, the “polymerase ribozyme fitness (log ratio)” value was -1.28.
On to C62U U129C, for which the “polymerase ribozyme fitness (log ratio)” value is 0.0239.
Consider C62U U125G G127C, for which the “polymerase ribozyme fitness (log ratio)” value is -1.39.
With C64U A66U C124A, the “polymerase ribozyme fitness (log ratio)” value amounted to 1.13.
G63U G113A G128U: the “polymerase ribozyme fitness (log ratio)” value is -4.06.
G63C C85G U130G: the “polymerase ribozyme fitness (log ratio)” value is -1.36.
For C64U C70G C79U A111U U112A C124A, the “polymerase ribozyme fitness (log ratio)” value was -5.81.
The same measure for C64U C82U C89A: -1.79; for G63A G113U: -2.82; for G63A G113A: -1.68.
Take G63U U87A G122U: the “polymerase ribozyme fitness (log ratio)” value was -1.97.
As to C64A U78C U81G G120A, the “polymerase ribozyme fitness (log ratio)” value is -6.42.
C62U C124U: the “polymerase ribozyme fitness (log ratio)” value was determined as 0.977.
Take G63U C102A: the “polymerase ribozyme fitness (log ratio)” value was -3.78.
Regarding G63A C73A C114G, the “polymerase ribozyme fitness (log ratio)” value is -5.85.
In the case of C62U U125A, the “polymerase ribozyme fitness (log ratio)” value is -1.11.
As to C64A C82G A121C, the “polymerase ribozyme fitness (log ratio)” value is -7.17.
On to G63A U109C, for which the “polymerase ribozyme fitness (log ratio)” value is -2.75.
The same measure for G63U C123A: -0.845; for G63C U78C A105C: -3.52.
As for C64A U87A, the “polymerase ribozyme fitness (log ratio)” value is -6.3.
The same measure for G63C C80U: -2.4; for G63U C85U U130A: -2.02.
Take C62U C114U: the “polymerase ribozyme fitness (log ratio)” value was -1.82.
Regarding C62U C114G, the “polymerase ribozyme fitness (log ratio)” value was -3.11.
On to G63A U126G, for which the “polymerase ribozyme fitness (log ratio)” value is -2.3.
On to G63A G93A C97U U130A, for which the “polymerase ribozyme fitness (log ratio)” value was -2.59.
